Read-outs that look alike come from different tables or passages of the source.
Legend:
Test in all cases: ITC
[1] = target: T1, UHRF1 SRA (mouse, UniProt Q8VDF2 417-628)
T1 sequence: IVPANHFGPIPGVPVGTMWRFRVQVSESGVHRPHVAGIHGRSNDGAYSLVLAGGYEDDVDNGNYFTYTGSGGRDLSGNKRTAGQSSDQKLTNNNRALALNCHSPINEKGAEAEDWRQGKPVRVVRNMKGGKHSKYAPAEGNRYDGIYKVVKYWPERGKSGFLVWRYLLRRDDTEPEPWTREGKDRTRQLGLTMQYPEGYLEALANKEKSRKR

[2] = target: T1, UHRF1 SRA; remark: listed apart in the source
[3] = target: T1, UHRF1 SRA; remark: listed apart in the source
[4] = target: T1, UHRF1 SRA; remark: listed apart in the source

B1: fully-mCG DNA (dsDNA)
DNA 1: CAGCTCGAGCTG
DNA 2: CAGCTCGAGCTG
modifications: 5mC on both strands in CG context
Work on B1 yielded a Kd [1] of 4130 ± 90 nM.

B2: hemi-mCG DNA (dsDNA)
DNA 1: GCAATCCGGTAG
DNA 2: CTACCGGATTGC
modifications: 5mC on one strand in CG context
B2 gave a Kd [2] of 640 ± 120 nM.

B3: fully-mCHG DNA (ITC) (dsDNA)
DNA 1: TCACGCTGCGTGA
DNA 2: TCACGCTGCGTGA
modifications: 5mC on both strands in CHG context
B3 was tested, and the Kd [3] was 1850 ± 60 nM.

B4: mCH DNA (dsDNA)
DNA 1: TCATCAGTGAT
DNA 2: TCACTGATGAC
modifications: 5mC in CH context
B4 was tested, and the Kd [4] was 1160 ± 90 nM.

— paper doi:10.1101/2019.12.17.880419
